Target: RBD of the recombinantly expressed S protein (SARS-CoV-2) (UniProt P0DTC2)
Test: ELISA, plate coated with RBD at 0.01 µg/ml, HRP goat anti-human IgG Fc

OD450 reading: 0.006 OD450
Substance: Irrelevant antibody
